Test results from paper PMC5932218 (Structure (London, England : 1993), 2018).

Columns and labels:
[1] = target: T1, calmodulin (CaM) (Homo sapiens, UniProt P0DP25); test: Isothermal titration calorimetry of CaM binding to NaV IG peptides; details: for effect of truncation of the IG peptide on CaM affinity: N- and C-terminally truncated IG peptides, Ca2+ present; for stoichiometry: 1:1 binding model
[2] = target: T1, calmodulin (CaM); test: NMR analysis of Ca2+-loaded CaM binding to wild type versus mutant IG peptides; details: 15N-enriched IG peptide with CaM, intermediate versus slow exchange
[3] = target: NaV1.5 inactivation gate peptide Q1483-A1529 (human) (UniProt Q14524); test: NMR titration
[4] = target: NaV1.5 inactivation gate peptide Q1483-A1529 (human) (UniProt Q14524); test: SEC-MALS
[5] = target: NaV1.5 inactivation gate peptide Q1483-A1529 (human) (UniProt Q14524); test: SAXS
[6] = target: NaV1.2 inactivation gate peptide (aligned to NaV1.5 Q1483-A1529) (human); test: ITC
[7] = target: NaV1.4 inactivation gate peptide (aligned to NaV1.5 Q1483-A1529) (human); test: ITC
[8] = target: NaV1.5 inactivation gate peptide D1471-V1532 (full-length IG, 62 residues) (human) (UniProt Q14524); test: ITC
NaV1.5 inactivation gate peptide D1471-V1532 (full-length IG, 62 residues) (human), sequence (Q14524 1471-1532, tags left off): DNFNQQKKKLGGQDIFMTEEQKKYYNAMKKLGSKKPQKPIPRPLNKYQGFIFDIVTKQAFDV

[9] = target: NaV1.5 inactivation gate peptide Q1483-A1529 (human) (UniProt Q14524); test: ITC
[10] = target: NaV1.6 inactivation gate peptide (aligned to NaV1.5 Q1483-A1529) (human); test: ITC
[11] = system: calmodulin (CaM); details: ref (15); cited from earlier work
[12] = Solubility of IG peptide in ITC buffers; type: physicochemical; details: under higher ionic strength conditions
[13] = ITC, 20 mM TRIS, 50 mM NaCl, 1 mM CaCl2, pH 7.4, triplicate, ± SD
[14] = ITC, in the presence of Ca2+, lower ionic strength buffer

**Q.** Which “effect of truncation of the IG peptide on CaM affinity” value ([1]; ITC) does the source give for “T1526: NaV1.5 IG peptide with the C terminus truncated to T1526” here?
**A.** Its value is “reduced affinity into the μM range”.

**Q.** Which “affinity of CaM for the variant IG peptide relative to WT” value [2] does the source give for “IG peptide double mutant: IG peptide with both the Y1494L (Site A) and F1522L (Site B) mutations” here?
**A.** The value was “significant reduction in the affinity”.

**Q.** Which results are given for “H-GPGSQDIFMTEEQKKYYNAMKKLGSKKPQKPIPRPLNKIQGIVFDFVTQQA-OH [NaV 1.6]”?
**A.** stoichiometry [1, 13]: 1.03 ± 0.01; ΔH [1, 13]: -9.0 ± 0.2 kcal/mol; ΔS (cal/mol•deg) [1, 13]: 2.5 ± 1.1 cal/mol•deg; Kd ([1]; SD): 0.082 ± 0.02 µM

**Q.** For “Q1483: NaV1.5 IG peptide with the N terminus truncated to Q1483”, which “effect of truncation of the IG peptide on CaM affinity” value ([1]; ITC) is on record?
**A.** Its value is “no effect on CaM affinity”.

**Q.** For “D1523: NaV1.5 IG peptide with the C terminus truncated to D1523”, which “effect of truncation of the IG peptide on CaM affinity” value ([1]; ITC) is on record?
**A.** The value was “reduced affinity into the μM range”.

**Q.** Which results are given for “calmodulin (CaM), Ca2+-loaded unless stated (from UniProt P0DP25 1-149) (natural protein)”?
**A.** stoichiometry N [3]: 1; stoichiometry N [4]: 1; stoichiometry N [5]: 1; stoichiometry N [6]: 1.02; stoichiometry N [7]: 1.06; dH [8]: -9.3 kcal/mol; dH [9]: -5.8 kcal/mol; Kd [10]: 0.082 µM; stoichiometry N [10]: 1.03

**Q.** With “Y1494A: Y1494A site A mutant of the IG from a previous study” as the substance, how does the “effect of Y1494A site A mutation on CaM affinity” value [11] read?
**A.** The value was “substantially reduced”.

**Q.** Which results are given for “H-GPGSQDIFMTEEQKKYYNAMKKLGSKKPQKPIPRPQNKIQGMVYDLVTKQA-OH [NaV 1.4]”?
**A.** stoichiometry [1, 13]: 1.06 ± 0.01; ΔH [1, 13]: -8.8 ± 0.3 kcal/mol; ΔS (cal/mol•deg) [1, 13]: 3.8 ± 1.3 cal/mol•deg

**Q.** Which results are given for “D1471-V1532: 62-residue peptide corresponding to the full-length NaV1.5 inactivation gate (IG)”?
**A.** CaM interaction in the absence of Ca2+ ([1]; ITC, absence of Ca2+): no interaction was observed; ΔH [1, 14]: -9.3 ± 0.1 kcal/mol; ΔS [1, 14]: 5.2 ± 1.1 cal/mol•deg; solubility [12]: limited solubility
